US12258605B2, “Alkane oxidation by modified hydroxylases” (The California Institute of Technology, priority 2005, dated 2025)

Legend:
Type in all cases: biochemical
[1] = Chloromethane dehalogenation (Purpald detection of formaldehyde); conditions: chloromethane, cofactor regeneration system
Excerpt: The dehalogenation reaction is based on the hydroxylation of the carbon atom carrying the halogen by a spontaneous (base catalyzed) alpha-elimination reaction which leads to the formation of an aldehyde or ketone depending on the starting haloalkane. The expected reaction mechanism for the dehalogenation of a general alpha-haloalkane is described by the scheme:
To test the feasibility of this approach, chloromethane was chosen as substrate for the dehalogenation reaction. Compared to other haloalkanes, chloromethane (CM) has the advantage to be moderately soluble in water (0.5 g/100 ml) and to lead to formaldehyde as end product of the hydroxylation/alpha-elimination reaction. Formaldehyde can be then readily detected by colorimetric reaction with Purpald as described previously. To test the reaction, two BM-3 mutants from later rounds of random mutagenesis, 35-E1141 and 20-D3, were incubated in the presence of CM and a cofactor regeneration system based on NADP^+, glucose-6-phosphate and glucose-6-phosphate dehydrogenase. Reactions with wild-type P450 BM-3 and without enzyme were included as controls.
The reaction was repeated in the presence of additional BM-3 mutants, including 1-8H, 1-12G2 and the wild-type P450 BM-3 in which A328 was substituted with valine (BM-3-A328V) (FIG. 27B). […] Wild-type BM-3 was substituted with other amino acid residues at position […].
The activity of BM-3-A328V on CM and other substrates such as HME, DME, and propane was further investigated by measuring product formation rate, cofactor consumption and coupling efficiency (Table 14). This mutant was also found to be capable to hydroxylate ethane to ethanol, although only for a total of about 5-10 turnovers. In Table 14 “consumption” rates are expressed as nmol NADPH/nmol enzyme/min and “product formation” rates are expressed as nmol product/nmol enzyme/min.

[2] = Reactions on alkanes, total turnovers (Table 18): decane; conditions: decane (10 C atoms)
Description: (§1) Reactions on alkanes. Reactions with alkanes from pentane to decane were carried out at 3 mL-scale using 100 mM KPi pH 8.0 buffer containing 2% ethanol (to allow alkane solubilization) and purified protein. 2.5 mL KPi buffer were added with 60 μL of 90 mM alkane solution in ethanol (final conc.=1.8 mM), 150 μL enzyme solution at 1 μM (final conc.=50 nM), and 300 μL NADPH regeneration solution (100 units/mL isocitrate dehydrogenase, 70 mg/mL isocitrate, 1.5 mg/ml NADP^+). Vials were sealed and stirred for 24 hours at 4° C. 1 mL-aliquot of the reaction was removed, added with 10 μl internal standard (25 mM 1-bromohexane in ethanol), and extracted with 200 μl chloroform (30 sec vortexing, 1 min centrifugation at 10000 g). The organic phase was removed and analyzed by gas chromatography. Reactions with ethane, propane, and butane were carried out as described for longer alkanes with the only difference that alkane-saturated KPi buffer was used. Propane reactions with variants from HL5 and L9 libraries were performed on 1 mL-scale reaction using 20 nM enzyme to reduce oxygen limitation. Propane and butane reactions were analyzed by direct injection of reaction solution on the GC using 1-pentanol as internal standard. Ethane reaction products were functionalized (see below) and analyzed by GC using 1-butanol as internal standard. All measurements were performed in triplicate.
(§2) Products from alkane reactions were identified and quantified by gas chromatography using authentic standards and calibration curves with internal standards. For the reactions with alkanes from pentane to decane, GC analyses were carried out using a Shimadzu GC-17A gas chromatograph, Agilent HP5 column (30 m×0.32 mm×0.1 μm film), 1 μL injection, FID detector, and the following separation program: 250° C. inlet, 250° C. detector, 50° C. oven for 3 min, 5° C./min gradient to 100° C., 25° C./min gradient to 230° C., and 230° C. for 3 min. For butane and propane (TTN) reactions, GC analyses were carried out using a Hewlett-Packard 5890 Series II Plus gas chromatograph, Supelco SPB-1 column (60 m×0.52 mm×0.5 μm film), 0.5 μL injection, FID detector, and the following separation program: 250° C. inlet, 275° C. detector, 80° C. oven for 2 min, 10° C./min gradient to 110° C., 25° C./min gradient to 275° C., and 275° C. for 2.5 min. For ethane and propane (rate) reactions, analysis of reaction mixtures was carried out by derivatization to alkyl nitrites followed by GC-ECD analysis. For laurate, reaction product analysis was carried out by derivatization with N-methyl-N-trimethylsilylheptafluorobutyramide followed by extraction with hexane. Organic solutions were analyzed by FID-GC.
(§3) TTNs for each variant-substrate pair were determined using standardized reaction conditions (identical enzyme and substrate concentration, incubation time, cofactor regeneration system) (Table 18). TTN values were used to assess performance because TTN is a cumulative measure of both catalytic and coupling efficiency and because mutants were selected based on improvement in this property. To facilitate comparison among the variants, TTNs were normalized to the highest value in the series (MTN=Maximal Turnover Number) and plotted for the increasing-sized substrates (FIG. 38). A gradual shift of the enzyme's substrate preference during laboratory evolution is evident from these profiles. The marginal activity of wild-type BM3 on these substrates (MTN=150) is restricted to the long-chain alkanes, where it is a promiscuous function of BM3's high C12-C20 fatty acid hydroxylase activity. In the first evolutionary intermediates, substrate preference centers on medium-chain alkanes […], reflecting their selection for activity on octane. In 35E11, selected for activity on propane, preference still centers on C6-C8 alkanes but now extends towards the shorter ones, including propane. Propane activity becomes prevalent with the transition from variant ETS8 to 19A12. […]

[3] = Reactions on alkanes, total turnovers (Table 18): butane
Description: as §1, §2, §3

[4] = Reactions on alkanes, total turnovers (Table 18): octane; conditions: octane (8 C atoms)
Description: as §1, §2, §3

[5] = Reactions on alkanes, total turnovers (Table 18): hexane; conditions: hexane (6 C atoms)
Description: as §1, §2, §3

[6] = Reactions on alkanes, total turnovers (Table 18): heptane; conditions: heptane (7 C atoms)
Description: as §1, §2, §3

[7] = Reactions on alkanes, total turnovers (Table 18): pentane; conditions: pentane (5 C atoms)
Description: as §1, §2, §3

[8] = TTN normalized to the highest value of the variant's series
[9] = total turnovers, standardized reaction conditions

Molecule	colorimetric response (Purpald) [1]	% rel. act. [2, 8]	TTN [2, 9]	% rel. act. ([3]; butane (4 C atoms), TTN normalized to the highest value of the variant's series)	TTN ([3]; butane (4 C atoms), total turnovers, standardized reaction conditions)	drop in activity when a single methylene unit is added to the substrate ([3]; relative to propane)	% rel. act. [4, 8]	TTN [4, 9]	% rel. act. [5, 8]	TTN [5, 9]	% rel. act. [6, 8]	TTN [6, 9]	% rel. act. [7, 8]	TTN [7, 9]
20-D3: P450 BM-3 variant, SEQ ID NO:11; 35-E11 plus H285R (protein, mutant P450 20-D3 protein sequence, 35-E11 plus H285R) TIKEMPQPKTFGELKNLPLLNTDKPVQALMKIADELGEIFKFEAPGCVTRYLSSQRLIKEACDESRFDKNLSQALKFFRDFSGDGLFTSWTHEINWKKAHNILLPSFSQQAMKGYHAMMVDIAVQLVQKWERLNADEHIEVSEDMTRLTLDTIGLCGFNYRFNSFYRDQPHPFIISMVRALDEVMNKLQRANPDDPAYDENKRQCQEDIKVMNDLVDKIIADRKARGEQSDDLLTQMLNGKDPETGEPLDDGNISYQIITFLIAGHETTSGLLSFALYFLVKNPRVLQKVVEEAARVLVDPVPSYKQVKQLKYVGMVLNEALRLWPTFPAFSLYAKEDTVLGGEYPLEKGDEVMVLIPQLHRDKTIWGDDVEEFRPERFENPSAIPQHAFKPFGNGQRACIGQQFALHEATLVLGMMLKHFDFEDHTNYELDIKETLTLKPEGFVVKAKSKKIPLGGIPSPSTGQSAKKVRKKAENAHNTPLLVLYGSNMGTAEGTARDLADIAMSKGFAPQVATLDSHAGNLPREGAVLIVTASYNGHPPDNAKQFVDWLDQASADEVKGVRYSVFGCGDKNWATTYQKVPAFIDETLAAKGAENIADRGEADASDDFEGTYEEWREHMWSDVAAYFNLDIENSEDNKSTLSLQFVDSAADMPLAKMHGAFSTNVVASKELQQPGSARSTRHLEIELPKEASYQEGDHLGVIPRNYEGTVNRVTARFGLDASQQIRLEAEEEKLAHLPLAKTVSVEELLQYVELQDPVTRTQLRAMAAKTVCPPHKVELEALLEKQAYKEQVLAKRLTMLELLEKYPACEMKFSEFIALLPSIRPRYYSISSSPRVDEKQASITVSVVSGEAWSGYGEYKGIASNYLAELQEGDTITCFISTPQSEFTLPKDPETPLIMVGPGTGVAPFRGFVQARKQLKEQGQSLGEAHLYFGCRSPHEDYLYQEELENAQSEGIITLHTAFSRMPNQPKTYVQHVMEQDGKKLIELLDQGAHFYICGDGSQMAPAVEATLMKSYADVHQVSEADARLWLQQLEEKGRYAKDVWAG	specific colorimetric response													
P450PMO: P450 BM-3 variant, SEQ ID NO:125; 7-7 plus G443A and D698G; propane monooxygenase (protein, Mutant P450PMO protein sequence, 7-7 plus G443A and D698G; propane monooxygenase) TIKEMPQPKTFGELKNLPLLNTDKPVQALMKIADELGEIFKFEAPGCVTRYISSQRLIKEACDESRFDKNLSQELKFFRDFGGDGLFTSWTHEINWKKAHNILLPSFSQQAMKGYHAMMVDIAVQLVQKWERLNADEHIEVSEDMTRLTLDTIGLCGFNYRFNSFYRDQPHPFIISMVRALDEVMNKPQRANPDDPAYDENKRQCQEDIKVMNDLVDKIIADRKARGEQSDDLLTQMLNGKDPETGEPLDDGNISYQIITFLIAGHETTSGLLSFALYFLVKNPHVLQKVVEEAARVLVDPVPSYKQVKQLKYVGMVLNEALRLWPTFPAFSLYAKEDTVLGGEYPLEKGDEVMVLIPQLHRDKTVWGDDVEEFRPERFENPSAIPQHAFKPFGNGQRACIGQQFALHEATLVLGMMLKHFDFEDHTNYELDIKETLTLKPEAFVVKAKSKKIPLGGIPSPSTGQSAKKVRKKAENAHNTPLLVLYGSNMGTAEGTARDLADIAMSKGFAPQVATLDSHAGNLPREGAVLIVTASYNGHPPDNAKQFVDWLDQASADEVKGVRYSVFGCGDKNWATTYQKVPAFIDETLAAKGAENIADRGEADASDDFEGTYEEWREHMWSDVAAYFNLDIENSEDNKSTLSLQFVDSAADMPLAKMHGAFSTNVVASKELQQPGSARSTRHLEIELPKEASYQEGGHLGVIPRNYEGTVNRVTARFGLDASQQIRLEAEEEKLAHLPLAKTVSVEELLQYVELQDPVTRTQLRAMAAKTVCPPHKVELEALLEKQAYKEQVLAKRLTMLELLEKYPACEMKFSEFIALLPSIRPRYYSISSSPRVDEKQASITVSVVSGEAWSGYGEYKGIASNYLAELQEGDTITCFISTPQSEFTLPKDPETPLIMVGPGTGVAPFRGFVQARKQLKEQGQSLGEAHLYFGCRSPHEDYLYQEELENAQSEGIITLHTAFSRMPNQPKTYVQHVMEQDGKKLIELLDQGAHFYICGDGSQMAPAVEATLMKSYADVHQVSEADARLWLQQLEEKGRYAKDVWAG		5.3%	1080 ± 30	30.2%	6200 ± 400	90%	9.2%	1880 ± 60	12.7%	2600 ± 205	14.6%	2990 ± 165	4.9%	1000 ± 110
